T1: NatC WT complex (Naa30ΔC17, full-length Naa35, Naa38ΔC11) (S. cerevisiae, UniProt Q03503 1-159; Q02197 1-733; P23059 1-77)
T1 construct: Naa30, catalytic subunit of NatC, S. cerevisiae, residues 1–159; Naa38, small auxiliary subunit of NatC, S. cerevisiae, residues 1–77; also called heterotrimeric NatC complex; not shown: His6, N-terminal, cleaved; copies: + +
T1 sequence (looked up) 1: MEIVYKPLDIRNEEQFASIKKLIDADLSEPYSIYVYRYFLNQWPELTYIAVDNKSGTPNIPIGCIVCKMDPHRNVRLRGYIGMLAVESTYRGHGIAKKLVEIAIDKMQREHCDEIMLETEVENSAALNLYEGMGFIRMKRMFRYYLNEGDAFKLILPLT
T1 sequence (looked up) 2: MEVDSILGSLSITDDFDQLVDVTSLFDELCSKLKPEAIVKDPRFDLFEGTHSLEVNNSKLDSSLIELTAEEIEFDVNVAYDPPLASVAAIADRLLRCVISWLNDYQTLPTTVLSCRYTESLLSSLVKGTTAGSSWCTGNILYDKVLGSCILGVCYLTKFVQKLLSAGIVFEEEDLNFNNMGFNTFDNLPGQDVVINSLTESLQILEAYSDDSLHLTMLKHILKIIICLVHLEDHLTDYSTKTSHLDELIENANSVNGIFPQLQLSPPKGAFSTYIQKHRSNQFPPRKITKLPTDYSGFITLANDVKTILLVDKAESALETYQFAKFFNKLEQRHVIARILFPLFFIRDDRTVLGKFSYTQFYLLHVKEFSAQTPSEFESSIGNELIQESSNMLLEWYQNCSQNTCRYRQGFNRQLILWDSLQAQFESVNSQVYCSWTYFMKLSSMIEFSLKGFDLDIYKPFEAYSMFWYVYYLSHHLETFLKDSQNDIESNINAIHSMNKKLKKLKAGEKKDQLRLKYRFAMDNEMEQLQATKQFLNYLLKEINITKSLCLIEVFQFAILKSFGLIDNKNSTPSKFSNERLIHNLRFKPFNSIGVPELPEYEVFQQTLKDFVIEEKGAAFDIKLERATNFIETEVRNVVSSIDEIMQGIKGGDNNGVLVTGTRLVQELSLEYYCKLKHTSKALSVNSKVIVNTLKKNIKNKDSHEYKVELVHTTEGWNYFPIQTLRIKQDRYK
T1 sequence (looked up) 3: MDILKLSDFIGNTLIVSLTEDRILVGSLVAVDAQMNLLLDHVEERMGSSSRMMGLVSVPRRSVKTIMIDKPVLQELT


Assays:
[1] = substrate: CC(=O)SCCNC(=O)CCNC(=O)[C@H](O)C(C)(C)COP(=O)(O)OP(=O)(O)OC[C@H]1O[C@@H](n2cnc3c(N)ncnc32)[C@H](O)[C@@H]1OP(=O)(O)O; experiment: Ellman (DTNB) colorimetric acetyltransferase assay, Michaelis-Menten fit; type: biochemical, Saccharomyces cerevisiae; settings: fixed yArl3 peptide … 1340 µM, 30–500 µM acetyl-CoA, pH 7.5, 25 °C
From the text: Ellman (DTNB) colorimetric acetyltransferase assay, Michaelis-Menten fit on NatC WT (Naa30ΔC17, full-length Naa35, Naa38ΔC11)

[2] = molecular target: T1, NatC WT complex (Naa30ΔC17, full-length …); experiment: crystal structure; purified NatC with CoA (1:3) and substrate peptide … (1:5) or … (1:3) added to the crystallization setup; 14.5–16.5% PEG 4000, 150 mM ammonium iodide, 100 mM sodium citrate pH 6.1–6.3; settings: both partners purified

| Binder | Km [1] [µM] | binding result [2] |
| --- | --- | --- |
| NatC WT (Naa30ΔC17, full-length Naa35, Naa38ΔC11) (Saccharomyces cerevisiae S288C) (protein, heterotrimer co-expressed in E. coli BL21(DE3) from pRSFDuet-1; Naa30 lacks 17 and Naa38 lacks 11 C-terminal residues; His6-tag on Naa35 cut by HRV 3C; with N-alpha-acetyltransferase 35, NatC auxiliary subunit; N-alpha-acetyltransferase 38, NatC auxiliary subunit) MEIVYKPLDIRNEEQFASIKKLIDADLSEPYSIYVYRYFLNQWPELTYIAVDNKSGTPNIPIGCIVCKMDPHRNVRLRGYIGMLAVESTYRGHGIAKKLVEIAIDKMQREHCDEIMLETEVENSAALNLYEGMGFIRMKRMFRYYLNEGDAFKLILPLT | 30 ± 6 |  |
| MLRFVGSRRR (the N-terminal five residues of the major capsid protein (Gag) of the S. cerevisiae virus L-A; GS linker and a triple arginine to facilitate peptide solubility; Only the first six residues were modelled in the crystal; source: synthetic peptide (ProteoGenix)) [Gag peptide (MLRFVGSRRR)] |  | binds |

— article PMC7608589, “Divergent architecture of the heterotrimeric NatC complex explains N-terminal acetylation of cognate substrates” (Nature Communications, 2020)
